From publication doi:10.1101/2022.02.27.481963

Molecular target: Fused MjGMPS (MjATPPase subunit fused to the C-terminus of MjGATase, no intervening linker) (Methanocaldococcus jannaschii)
Assay: SEC

“Fused MjGMPS (MjATPPase subunit fused to the C-terminus of MjGATase, no intervening linker) (enzyme)” showed a stoichiometry N of 2.
